In the supplement of paper PMC12764529:
± gives the half width of the 95% confidence interval.

What was measured:
[1] = folding stability dG unfold from trypsin proteolysis; higher = more stable
Outline: (§1)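 Digests were run with trypsin and chymotrypsin at 11 concentrations in threefold dilutions, plus a no-protease condition, on designed mini-proteins in a PA-tagged cDNA display construct. The mini-proteins were under 80 residues, had no cysteine, and were kept only when AlphaFold2 dimer inter-PAE was above 15. After sequencing, Bayesian fitting of the counts gave K50, from which unfolding free energy was derived against a sequence-predicted unfolded-state K50 and a shared folded-state K50, per protease or combined.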

[2] = folding stability dG unfold from chymotrypsin proteolysis; higher = more stable
Outline: as §1

[3] = folding stability dG unfold (combined trypsin and chymotrypsin); higher = more stable
Outline: as §1

| Sequence | folding stability dG unfold [1] [kcal/mol] | folding stability dG unfold [2] [kcal/mol] | folding stability dG unfold [3] [kcal/mol] |
| --- | --- | --- | --- |
| SAGGMTKTVTVTIEIDVPPGVTVDELIEKLKELAEKLGLTVKVTSVTVEEVDGKLVVTVEVEIEPPEPSAGG [r13_351_TrROS_Hall] | 2.58 ± 0.25 | 2.6 ± 0.18 | 2.5 ± 0.31 |
| SAGGMTLITIEHPDGEVIEFELPGATEEEAEAIAEEIAKRHDPGKVKVTFEKVPEKGVDPTKPVAVKSAGGS [r8_167_JUSTAS] | -0.128 ± 0.073 | 1.39 ± 0.038 | 0.917 ± 0.099 |
| SAGGMTLRIVLPEEEAEKLVEELKKIFPGAEIKVKKVEYNEETGEKLVVLEIKFKSKEEAEKAKKLLESAGG [r13_539_TrROS_Hall] | 3.54 ± 0.1 | 3.8 ± 0.12 | 3.73 ± 0.083 |
| SAGGMTLTLTGPEEVVDDLLERLREEFPDVTVEPTAVSYDPATGLVTVPVRVVTEDPAVVAAIRAALSSAGG [r13_539_JUSTAS] | 4.08 ± 0.091 | 3.562 ± 0.03 | 3.79 ± 0.065 |
| SAGGMTLTLTIKVKTTTVEKDAATGKETVRTETRTLTVTIEAESEEEALAALKKLLEELGFEIVEVTSAGGS [r16_459_TrROS_Hall] | 3.99 ± 0.27 | 5.1 ± 0.22 | 4.89 ± 0.28 |
| SAGGMTPAVTETTIELPASDPEAAIAALRAAGWELLARERGPDGSVRMVFAAPTRRVTVDFVGPAAASAGGS [r16_170_JUSTAS] | 1.06 ± 0.014 | 2.03 ± 0.039 | 1.71 ± 0.032 |
| SAGGMTPEELREKAKKLAEELAKKLKEKYPNVKVEVEVDEETKKVKIKVKNKKTGKTYEITINLEELLSAGG [r13_354_TrROS_Hall] | 3.85 ± 0.47 | 3.94 ± 0.22 | 4.09 ± 0.42 |
| SAGGMTRVLELTVPVDVIGPEELKALLEALAEDAEVEFEIGPDGLLRVRVTVDVPPDPDAPPDLDGESAGGS [r16_535_TrMRF] | 1.82 ± 0.045 | 2.4 ± 0.099 | 2.33 ± 0.11 |
| SAGGMTSTLTVTLTVSPSTSPEEAAERAAEALEAAHPDRTVVIESITVTPATGKVVATIKVVGDTGASAGGS [r8_26_JUSTAS] | 1.53 ± 0.055 | 1.18 ± 0.029 | 1.39 ± 0.07 |
| SAGGMTTTTTFDGPTDEAFDLPSGVKVEPEPATGGYRVELPPGREVEVTVERSTDPGTVTWTFTFKESAGGS [r16_122_JUSTAS] | 0.3 ± 0.036 | 0.531 ± 0.16 | 0.544 ± 0.078 |
| SAGGMTTVTTTFTMSSEELKKFLEEKFGREVTKEEIIELIPKEKKIDVSESPQPNGTVKYTITITIEKSAGG [r13_869_JUSTAS] | 1.99 ± 0.099 | 2.61 ± 0.044 | 2.44 ± 0.16 |
| SAGGMTVERVPGSGVYTLTFPDGSTETLEIPPEENAVVYAKEGAGTVTVKLAPPDDPEALAAAAALSSAGGS [r16_623_JUSTAS] | -0.344 ± 0.083 | 0.357 ± 0.069 | 0.15 ± 0.066 |
| SAGGMTVSVTADGSSYTATVKLPDGTTLTVPFTSLEELATQVREEYEKAFPDVPLERLVLEDISPTAPSAGG [r13_887_JUSTAS] | 1.77 ± 0.031 | 3.344 ± 0.021 | 2.93 ± 0.036 |
| SAGGMTVTVLEVTEEEVIIDDKKEKIITITIKLPDGTEITVTLSTSEIEAKGLTKEEAVEYIAKKLLSAGGS [r16_625_JUSTAS] | 3.55 ± 0.085 | 4.16 ± 0.058 | 3.99 ± 0.078 |
| SAGGMVEITATVGSPDPSLTDEEIAERILKELGLDPEIVEVTFLERRLVPDAAGRVRVVVEMKFLVPEKSAG [r5_528_JUSTAS] | 4.77 ± 0.21 | 4.26 ± 0.16 | 4.73 ± 0.19 |
| SAGGMVEVTYDPETGTLTILLPSPSGTLGPEAVEAAARLIRELYPEAEVEVEPLPDNTVRLRVRFPGGSAGG [r13_291_TrMRF] | 4.22 ± 0.093 | 5.38 ± 0.23 | 4.96 ± 0.14 |
| SAGGMVILVKDKDGRWRELSEEEIRRLAEELERRYNLEVEEVELEDGERYYLIRIEPPEVPGLSEEELSAGG [r13_790_TrROS_Hall] | 1.97 ± 0.059 | 2.15 ± 0.13 | 2.23 ± 0.21 |
| SAGGMVIRVRFRETNETVTLSPEVLEALKRGDPDALRALPEEQREALARIERVEIRPAPPVRVLPEEESAGG [r13_233_TrROS_Hall] | 2.63 ± 0.14 | 1.81 ± 0.14 | 2.29 ± 0.43 |
| SAGGMVITIPTTTSSIEEAIEAVKKKVEEEGYKVTEIKDIKVSTDPKTGKINVTATVIVEKLPKEEKSAGGS [r16_155_JUSTAS] | 0.99 ± 0.057 | 2.85 ± 0.22 | 2.55 ± 0.3 |
| SAGGMVIVFPAPKDISPDELRELIEAEVGPLAEELGLTEASIPIAKVEELPEGSRRVVAVIELRFDGSAGGS [r8_184_TrMRF] | 0.977 ± 0.027 | 0.332 ± 0.048 | 0.718 ± 0.056 |
| SAGGMVIVVKTKEEAKKALEELLKKLFPDLKIKKIEIKEVEVEVKKKDGKKVKKKKFIVVKIEIEKESAGGS [r16_267_TrROS_Hall] | 2.61 ± 0.1 | 3.38 ± 0.13 | 3.05 ± 0.13 |

| Sequence | folding stability dG unfold [1] [kcal/mol] | folding stability dG unfold [2] [kcal/mol] | folding stability dG unfold [3] [kcal/mol] |
| --- | --- | --- | --- |
| SAGGMVKLTVYETPDSYTVTIDLGDKPYTIPVPPGLSPEEAAARAVEELQKAFPDEEVVVESVEYVARSAGG [r13_884_JUSTAS] | 1.1 ± 0.079 | 1.24 ± 0.086 | 1.19 ± 0.068 |
| SAGGMVNLRLYNPATGEPIDFPVPKDVVEEMLKNGDLAALEALFPGFPIAKVEVDEGEEVPAVPPDEASAGG [r13_629_TrMRF] | 0.776 ± 0.032 | 0.0323 ± 0.15 | 0.462 ± 0.14 |
| SAGGMVQISVTEIDPETGLITIEMKFPKGVDDPAKIAAAKAEAEAFAQELEKKLGLPVKVTFTPLPESAGGS [r16_304_JUSTAS] | 1.95 ± 0.037 | 1.9 ± 0.039 | 1.93 ± 0.043 |
| SAGGMVTITLPEVNVEDPEVAEARMEEIAARLRAAGVTVTSASYDPEKGLATITVSAGGLSAAEVLASAGGS [r8_344_JUSTAS] | 2.48 ± 0.042 | 2.455 ± 0.015 | 2.47 ± 0.037 |
| SAGGMVTITTEKMTEEEAEELKKKLPPNTVLLPNPANDTIVPILVPPDPAVLQAVKDALEKELAEAKSAGGS [r16_311_JUSTAS] | 1.49 ± 0.13 | 0.662 ± 0.24 | 1.18 ± 0.15 |
| SAGGMVTSTVSVDPSVPKTTTTETFSDGTRVVTTTTELPSGLTVTTTTVTVPPDGSTTATSTTTTIAPSAGG [r13_230_JUSTAS] | 1.62 ± 0.064 | 0.958 ± 0.044 | 1.27 ± 0.11 |
| SAGGMVTVDTDPTEDGTLRVTVTVPRPDGPALTLTLDFPPEAGSLAVVLARADEALAAEMARRGLALSAGGS [r8_464_JUSTAS] | -0.0072 ± 0.27 | 1.95 ± 0.14 | 1.44 ± 0.22 |
| SAGGMVVTEEGDKTYITVRVPAPPGLPPEAVAAEIRERYGLSDLEVLEVEALPDGTLVVRLRDSTPASAGGS [r16_234_JUSTAS] | 2.55 ± 0.074 | 2.554 ± 0.021 | 2.55 ± 0.044 |
| SAGGMVVVAVEVDPVTKTATIVYAAPVPNLGGYVPIPAAAVAKRLTEELGLPDVKEVTVAQAAGDVPISAGG [r13_327_TrMRF] | 0.428 ± 0.057 | 0.607 ± 0.1 | 0.578 ± 0.12 |
| SAGGMYLYKINIKNENEEFFLPILAPEEDEEKVEELAKEISIKLGVKPENIKIEKIEKILGPNGIPVSAGGS [r16_650_TrMRF] | 1.74 ± 0.058 | 2.08 ± 0.037 | 1.99 ± 0.1 |
| SAGGNIKIEVYRSPDYYMIRIKLDGKPYEIPIDPGNTEEEAAEQALDNLQEKFPDKPIKIKDVEIYPYSAGG [r13_884_TrROS] | 0.473 ± 0.22 | 0.513 ± 0.42 | 0.566 ± 0.28 |
| SAGGNIKVRREPRPNGQYRVKITIPDPDGKPIEIEYRMPPGMDSPEQAQKEAIEVVKEFAKKHNIKISAGGS [r8_464_TrROS] | 0.423 ± 0.17 | 0.733 ± 0.17 | 0.605 ± 0.21 |
| SAGGNKGKTIQINFMIDPEDPEMMIEKISKWLQAKGFKIESIEPRPVGNRWMYSATFRVPNGREITIWSAGG [r13_421_TrROS] | 1.76 ± 0.039 | 1.61 ± 0.19 | 1.77 ± 0.17 |
| SAGGNLDKEFVRDIIENFGFTRIEVEEHPNRKVVTFRFENMDVVIRPDGQIEIENPGGEPVFQIEVPSAGGS [r8_147_TrROS] | 1.31 ± 0.031 | 1.63 ± 0.11 | 1.53 ± 0.21 |
| SAGGNNIYVHIQFKPKEQKMERTPDNGKWDMEYKWEIDITIYYPKGMSPEQAERLVNELREIFPGIKSAGGS [r8_306_TrROS] | 1.12 ± 0.072 | 2.54 ± 0.047 | 1.99 ± 0.12 |
| SAGGNPSASPVVTETELPDGSRVTTTTYPSGTTTRTVTDLVTGKKTLVTTTTTPGTGATTTTTTPVPPSAGG [r13_822_JUSTAS] | 0.151 ± 0.019 | 1.51 ± 0.022 | 1.08 ± 0.03 |
| SAGGNSMTILFIFPENGWIIRITIKFPDGNGKIDDIDIEREPVPNGQVKYTIRMPDGMEISVEIIPLDSAGG [r13_515_TrROS] | 3.99 ± 0.1 | 5.57 ± 0.15 | 5.52 ± 0.33 |
| SAGGNWIWRIKFPGRSIHFNWEQGNIEIWPPDGEEKTIPLPPGEPLEEFADEFAEKNGFDKVEIEPVPSAGG [r13_852_TrROS] | 2.08 ± 0.11 | 1.94 ± 0.24 | 1.95 ± 0.21 |
| SAGGNWRIVEIPIKFPPGQDLTTIAKEIAKELLPPGEDVSINVEQRPNYMRIYIFYPEDGKPLWEIEISAGG [r13_724_TrROS] | 1.95 ± 0.054 | 2.81 ± 0.048 | 2.58 ± 0.075 |
| SAGGNWTIEVEIEENPDGPYRITIRYRAPNGEEHKVTMWFDPDNGTFPIKLPGPLPPDQIEDIEIWPSAGGS [r16_95_TrROS] | 3.41 ± 0.36 | 5.04 ± 0.24 | 4.91 ± 0.19 |
| SAGGPDIKIKWKIEVNPDNGMIWLTMEIEVPNPNGDFYKVRADIYIPIVNPDDGKFPIFIMLEVEPVPSAGG [r13_715_TrROS] | 3.36 ± 0.3 | 4.74 ± 0.25 | 4.76 ± 0.2 |
